According to article PMC11326238 (bioRxiv, 2024):

Legend:
[1] = molecular target: recombinant AMY3 (α-amylase3) lacking the chloroplast transit peptide, purified (Arabidopsis) (UniProt Q94A41); test: SEC-MALS + other: SAXS
cross-linking = molecular target: the molecule itself; test: cross-linking

| stoichiometry N (BAM9 per AMY3 (heterodimer)) [1] | Molecule | stoichiometry N (cross-linking) |
| --- | --- | --- |
| 1 | recombinant BAM9 (β-amylase9), purified (from UniProt Q8VYW2 1-536) (natural protein) | – |
| – | recombinant AMY3 (α-amylase3) lacking the chloroplast transit peptide, purified (enzyme, Arabidopsis, UniProt Q94A41 56-887, looked up) SMNKSPVAIRATSSDTAVVETAQSDDVIFKEIFPVQRIEKAEGKIYVRLKEVKEKNWELSVGCSIPGKWILHWGVSYVGDTGSEWDQPPEDMRPPGSIAIKDYAIETPLKKLSEGDSFFEVAINLNLESSVAALNFVLKDEETGAWYQHKGRDFKVPLVDDVPDNGNLIGAKKGFGALGQLSNIPLKQDKSSAETDSIEERKGLQEFYEEMPISKRVADDNSVSVTARKCPETSKNIVSIETDLPGDVTVHWGVCKNGTKKWEIPSEPYPEETSLFKNKALRTRLQRKDDGNGSFGLFSLDGKLEGLCFVLKLNENTWLNYRGEDFYVPFLTSSSSPVETEAAQVSKPKRKTDKEVSASGFTKEIITEIRNLAIDISSHKNQKTNVKEVQENILQEIEKLAAEAYSIFRSTTPAFSEEGVLEAEADKPDIKISSGTGSGFEILCQGFNWESNKSGRWYLELQEKADELASLGFTVLWLPPPTESVSPEGYMPKDLYNLNSRYGTIDELKDTVKKFHKVGIKVLGDAVLNHRCAHFKNQNGVWNLFGGRLNWDDRAVVADDPHFQGRGNKSSGDNFHAAPNIDHSQDFVRKDIKEWLCWMMEEVGYDGWRLDFVRGFWGGYVKDYMDASKPYFAVGEYWDSLSYTYGEMDYNQDAHRQRIVDWINATSGAAGAFDVTTKGILHTALQKCEYWRLSDPKGKPPGVVGWWPSRAVTFIENHDTGSTQGHWRFPEGKEMQGYAYILTHPGTPAVFFDHIFSDYHSEIAALLSLRNRQKLHCRSEVNIDKSERDVYAAIIDEKVAMKIGPGHYEPPNGSQNWSVAVEGRDYKVWETS | 2 |
